This is an account of results in the RNAGym collection of RNA variant scans (doi:10.7554/elife.80360).

B1: CPEB3 Ribozyme (parent)
chain: GGGGGCCACAGCAGAAGCGUUCACGUCGCGGCCCCUGUCAGAUUCUGGUGAAUCUGCGAAUUCUGCUGU

The variants in this data set derive from B1. Kind of data set: self-cleavage, relative activity (ratio to wild type); higher = more cleavage; co-transcriptional.
For AGGGGCCACAGCAGAGGCGUUCACGUCGCGGCCCCUGUCAGAUUCUGGUGAAUCUGCGAAUUCUGCUGU, the self-cleavage amounted to 0.0235.

Take AGGGGCCACAGCAGAAGCGUUCACGUCGCGGCCCCUGUCAGAUUCUGGUGAAUCUGCGAAUUCUGGUGU: the self-cleavage amounted to 0.0767.

In the case of AGGGGCCACAGCAGAAGCGUUCACGUCGCGGCCCCUGUUAGAUUCUGGUGAAUCUGCGAAUUCUGCUGU, the self-cleavage was found to be 0.0531.

Turning to AGGGGCCACAGCAGAAGCGUUCACGUCGCGGCCCCUGUCAGAUUCUGGUGAAUCUGCGAAUUCUGCUGU, the self-cleavage stood at 0.104.

Consider AGGGGCCAAAGCAGAAGCGUUCACGUCGCGGCCCCUGUCAGAUUCUGGUGAAUCUGCGAAUUCUGCUGU, for which the self-cleavage came to 0.145.

Consider AGGGGCCAGAGCAGAAGCGUUCACGUCGCGGCCCCUGUCAGAUUCUGGUGAAUCUGCGAAUUCUGCUGU, for which the self-cleavage was 0.0894.

For AGGGGCCAUAGCAGAAGCGUUCACGUCGCGGCCCCUGUCAGAUUCUGGUGAAUCUGCGAAUUCUGCUGU, the self-cleavage amounted to 0.19.

Take AGGGGCCACAGCAGAAGCGUUCACGUCGGGGCCCCUGUCAGAUUCUGGUGAAUCUGCGAAUUCUGCUGU: the self-cleavage came out at 0.0465.

In the case of AGGGGCCACAGCAGAAGCGUUCACGUCGUGGCCCCUGUCAGAUUCUGGUGAAUCUGCGAAUUCUGCUGU, the self-cleavage was 0.0423.

Regarding AGGGACCACAGCAGAAGCGUUCACGUCGCGGCCCCUGUCAGAUUCUGGUGAAUCUGCGAAUUCUGCUGU, the self-cleavage was determined as 0.15.

With AGGGUCCACAGCAGAAGCGUUCACGUCGCGGCCCCUGUCAGAUUCUGGUGAAUCUGCGAAUUCUGCUGU, the self-cleavage turned out to be 0.0571.

As for AGGGCCCACAGCAGAAGCGUUCACGUCGCGGCCCCUGUCAGAUUCUGGUGAAUCUGCGAAUUCUGCUGU, the self-cleavage was 0.0678.

For the variant AGGGGCCACAGCAGAAGCGUUCACGUCGCGGCCGCUGUCAGAUUCUGGUGAAUCUGCGAAUUCUGCUGU, the self-cleavage turned out to be 0.0238.

As to AGGGGCCACAGCAGAAGCGUUCACGUCGCGGCCACUGUCAGAUUCUGGUGAAUCUGCGAAUUCUGCUGU, the self-cleavage came to 0.111.

As to AGGGGCCACAGCAGAAGCGUUCACGUCGCGGCCUCUGUCAGAUUCUGGUGAAUCUGCGAAUUCUGCUGU, the self-cleavage turned out to be 0.0949.

Turning to AGGGGCCACAGCAGAAGUGUUCACGUCGCGGCCCCUGUCAGAUUCUGGUGAAUCUGCGAAUUCUGCUGU, the self-cleavage stood at 0.0601.

For AGGGGCCACAGCAGAAGAGUUCACGUCGCGGCCCCUGUCAGAUUCUGGUGAAUCUGCGAAUUCUGCUGU, the self-cleavage came to 0.0308.

For AGGGGCCACAGCAGAAGGGUUCACGUCGCGGCCCCUGUCAGAUUCUGGUGAAUCUGCGAAUUCUGCUGU, the self-cleavage came out at 0.0371.

On to AGGGGCCACAGCAGAAGCGUUCACGUCGCGGCCCCUGUCAGAUUCUGGUGAAUCUGCGAAUUGUGCUGU, for which the self-cleavage came out at 0.0342.

AGGGGCCACAGCAGAAGCGUUCACGUCGCGGCCCCUGUCAGAUUCUGGUGAAUCUGCGAAUUAUGCUGU: the self-cleavage was 0.1.

AGGGGCCACAGCAGAAGCGUUCACGUCGCGGCCCCUGUCAGAUUCUGGUGAAUCUGCGAAUUUUGCUGU: the self-cleavage amounted to 0.0639.

As for AGGGGCCACAGCAGAAGCGUUCACGUCGCGGCCCCUGUCAGGUUCUGGUGAAUCUGCGAAUUCUGCUGU, the self-cleavage is 0.0249.

AGGGGCCACAGCAGAAGCGUUUACGUCGCGGCCCCUGUCAGAUUCUGGUGAAUCUGCGAAUUCUGCUGU: the self-cleavage is 0.0977.

On to AGGGGCCACAGCAGCAGCGUUCACGUCGCGGCCCCUGUCAGAUUCUGGUGAAUCUGCGAAUUCUGCUGU, for which the self-cleavage turned out to be 0.113.

Consider AGGGGCCACAGCAGGAGCGUUCACGUCGCGGCCCCUGUCAGAUUCUGGUGAAUCUGCGAAUUCUGCUGU, for which the self-cleavage amounted to 0.159.

Regarding AGGGGCCACAGCAGUAGCGUUCACGUCGCGGCCCCUGUCAGAUUCUGGUGAAUCUGCGAAUUCUGCUGU, the self-cleavage came out at 0.105.

For the variant AGGGGCCACAGCAGAAGCGUUCACGUCGCGGCCCCUGUCAGAUUCUGGUGAAUCUGAGAAUUCUGCUGU, the self-cleavage was 0.0488.

As for AGGGGCCACAGCAGAAGCGUUCACGUCGCGGCCCCUGUCAGAUUCUGGUGAAUCUGGGAAUUCUGCUGU, the self-cleavage stood at 0.0693.

For the variant AGGGGCCACAGCAGAAGCGUUCACGUCGCGGCCCCUGUCAGAUUCUGGUGAAUCUGUGAAUUCUGCUGU, the self-cleavage amounted to 0.0557.

Take AGGGGCCACAGCAGAAGCGUUCACCUCGCGGCCCCUGUCAGAUUCUGGUGAAUCUGCGAAUUCUGCUGU: the self-cleavage was found to be 0.0807.

In the case of AGGGGCCACAUCAGAAGCGUUCACGUCGCGGCCCCUGUCAGAUUCUGGUGAAUCUGCGAAUUCUGCUGU, the self-cleavage was determined as 0.0575.

For the variant AGGGGCCACAACAGAAGCGUUCACGUCGCGGCCCCUGUCAGAUUCUGGUGAAUCUGCGAAUUCUGCUGU, the self-cleavage stood at 0.136.

With AGGGGCCUCAGCAGAAGCGUUCACGUCGCGGCCCCUGUCAGAUUCUGGUGAAUCUGCGAAUUCUGCUGU, the self-cleavage came to 0.0637.

Consider AGGGGCCACAGCAGAAGCGUUCACGUCGCGGCCCCUGUCAGAUUCUGGUGUAUCUGCGAAUUCUGCUGU, for which the self-cleavage turned out to be 0.136.

Take AGGGGCCACAGCAGAAGCGUUCACGUAGCGGCCCCUGUCAGAUUCUGGUGAAUCUGCGAAUUCUGCUGU: the self-cleavage came out at 0.0748.

As for AGGGGCCACAGCAGAAGCGUUCACGUUGCGGCCCCUGUCAGAUUCUGGUGAAUCUGCGAAUUCUGCUGU, the self-cleavage worked out at 0.0438.

As for AGGGGCCACAGCAGAAGCGUUCACGUCGCGGCCCCUGUCAGAUUCUGGUGAAUCUGCGACUUCUGCUGU, the self-cleavage turned out to be 0.0326.

Turning to AGGGGCCACAGCAGAAGCGUUCACGUCGCGGCCCAUGUCAGAUUCUGGUGAAUCUGCGAAUUCUGCUGU, the self-cleavage is 0.0188.

Turning to AGGGGCCACAGCAGAAGCGUUCACGUCGCGGCCCUUGUCAGAUUCUGGUGAAUCUGCGAAUUCUGCUGU, the self-cleavage worked out at 0.0752.
